US20050032681A1 (TEMPLE UNIV OF THE COMMONWEALTH SYSTEM OF HIGHER EDUCATION …, published 2005)
Residue numbers refer to the chain shown, from its start. In names and notes the source's numbering stands.

T1: human neutrophil elastase (human, UniProt P08246 30-247, limits assumed)
T1 sequence (looked up): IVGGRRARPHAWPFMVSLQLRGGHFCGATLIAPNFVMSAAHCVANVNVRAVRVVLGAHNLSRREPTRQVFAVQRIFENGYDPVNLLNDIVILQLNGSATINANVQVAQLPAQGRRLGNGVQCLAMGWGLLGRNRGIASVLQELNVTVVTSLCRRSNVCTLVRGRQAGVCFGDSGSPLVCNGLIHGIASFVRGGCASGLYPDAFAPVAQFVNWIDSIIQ

T2: Human Cathepsin G (human, UniProt P08311 21-244)
T2 sequence (looked up): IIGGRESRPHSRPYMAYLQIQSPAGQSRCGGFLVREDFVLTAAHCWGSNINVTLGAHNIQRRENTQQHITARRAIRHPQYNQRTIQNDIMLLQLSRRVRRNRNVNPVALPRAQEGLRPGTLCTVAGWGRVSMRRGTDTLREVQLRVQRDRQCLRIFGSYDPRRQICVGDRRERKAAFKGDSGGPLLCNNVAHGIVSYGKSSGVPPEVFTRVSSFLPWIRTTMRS

B1: Bb modified ATIII (on human ATIII.N135A background) (other)
chain: HGSPVDICTAKPRDIPMNPMCIYRSPEKKATEDEGSEQKIPEATNRRVWELSKANSRFATTFYQHLADSKNDNDNIFLSPLSISTAFAMTKLGACNDTLQQLMEVFKFDTISEKTSDQIHFFFAKLNCRLYRKAAKSSKLVSANRLFGDKSLTFNETYQDISELVYGAKLQPLDFKENAEQSRAAINKWVSNKTEGRITDVIPSEAINELTVLVLVNTIYFKGLWKSKFSPENTRKELFYKADGESCSASMMYQEGKFRYRRVAEGTQVLELPFKGDDITMVLILPKPEKSLAKVEKELTPEVLQEWLDELEEMMLVVHMPRFRIEDGFSLKEQLQDMGLVDLFSPEKSKLPGIVAEGRDDLYVSDAFHKAFLEVNEEGSEAAASTEGFFSGRSLNPNRVTFKANRPFLVFIREVPLNTIIFMGRVANPCVK
notes: Recombinant, baculovirus/Sf9, N135A background; also called AT.Bb; Bb mutant
B2: Bb.A modified ATIII (on human ATIII.N135A background) (other)
chain: B1 chain with F389E, F390A
notes: Recombinant, baculovirus/Sf9, N135A background; also called AT.Bb.A
B3: Bb.B modified ATIII (on human ATIII.N135A background) (other)
chain: B1 chain with F389E, F390G
notes: Recombinant, baculovirus/Sf9, N135A background; also called AT.Bb.B
B4: FF modified ATIII (on human ATIII.N135A background) (other)
chain: B1 chain with E387A, G388V, S391A
notes: Recombinant, baculovirus/Sf9, N135A background; also called AT.FF
B5: LEAI modified ATIII (on human ATIII.N135A background) (other)
chain: B1 chain with E387A, G388L, F389E, F390A, S391I
notes: substitutions derived against S T A V V I A G R with the numbering of footnote c; also called AT3.LEAI

Columns and labels:
[1] = molecular target: T1, human neutrophil elastase; test: cell-based or functional assay
[2] = molecular target: T2, Human Cathepsin G; test: cell-based or functional assay
[3] = molecular target: human α-thrombin (human, UniProt P00734 328-363; P00734 364-622); test: pseudo-first-order thrombin inhibition kinetics, residual activity with S-2238, 25 C, polybrene
Procedure: (§1) Forty μL aliquots of ATIII samples at varying concentrations (450 nM, 300 nM, 150 nM) in PNE-PEG plus 50 μL polybrene (to neutralize any contaminating heparin) were preloaded into quadruplicate wells of a low-binding 96-well assay plate (Corning). The plate was maintained at 25° C., and 20 μL aliquots of 30 nM human thrombin or 15 nM human factor Xa were added to each of the four wells at successive 5 minute intervals. Reactions were quenched 5 minutes after addition of enzyme to the last of the wells by the adding 100 μL of 1.5 mM chromogenic substrate (S-2238 for thrombin; S-2765 for factor Xa). Residual enzyme activity was measured on a BioTek ELS11X kinetic plate reader controlled by a Macintosh SE with Deltasoft software. Initial rates of chromogenic substrate cleavage were monitored at 405 nm.

[4] = molecular target: T3, human factor Xa (human, UniProt P00742 41-179; P00742 235-488, limits assumed); test: pseudo-first-order factor Xa inhibition kinetics, residual activity with S-2765, 25 C, polybrene
T3 construct: that the active enzyme has two chains is from general knowledge
Procedure: as §1

T3 sequence (P00742 41-179 limits assumed, chain 1 of 2): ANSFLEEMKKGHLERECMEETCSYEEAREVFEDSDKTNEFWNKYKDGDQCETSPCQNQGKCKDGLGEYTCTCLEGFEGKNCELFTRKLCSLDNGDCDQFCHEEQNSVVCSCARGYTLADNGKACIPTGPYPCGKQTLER
T3 sequence (P00742 235-488 limits assumed, chain 2 of 2): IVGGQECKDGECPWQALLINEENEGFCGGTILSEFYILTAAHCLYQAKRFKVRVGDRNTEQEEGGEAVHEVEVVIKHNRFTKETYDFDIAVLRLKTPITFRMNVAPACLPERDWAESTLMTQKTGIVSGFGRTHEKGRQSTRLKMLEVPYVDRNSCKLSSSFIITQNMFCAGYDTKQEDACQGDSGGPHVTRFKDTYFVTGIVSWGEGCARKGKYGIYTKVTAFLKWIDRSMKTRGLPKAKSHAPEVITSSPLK

| Binder | HNE resistance T1/2, min [1] | Cathepsin G resistance T1/2, min [2] | kapp (apparent second-order rate constant of association) [3] | kapp (apparent second-order rate constant of association) [4] |
| --- | --- | --- | --- | --- |
| B1 | 15.8 min | 1.4 min | 3600 M⁻¹ s⁻¹ | 4500 M⁻¹ s⁻¹ |
| B2 | 27.4 min | > 45 min | 500 M⁻¹ s⁻¹ | 6200 M⁻¹ s⁻¹ |
| B3 | 44.8 min | 16.2 min |  | 700 M⁻¹ s⁻¹ |
| B4 | < 2.5 min |  | 1400 M⁻¹ s⁻¹ | 3000 M⁻¹ s⁻¹ |
| B5 | 2.8 min | 6.1 min | 3600 M⁻¹ s⁻¹ | 7000 M⁻¹ s⁻¹ |
